In patent CN114456266A (dated 2022):
Each block holds one binder with its values, some of them ahead of it. Ends that are not written are not given here.

Legend:
[1] = biological target: T1, RAD21*M (predicted separase cleavage fragment of RAD21, recombinant, expressed in HEK-293 cells) (UniProt O60216 173-450); experiment: immunoprecipitation by the standard ChIP procedure of recombinant protein from HEK-293 extracts
T1 construct: domain: RAD21*M; Transiently expressed from a plasmid in HEK-293
T1 sequence (looked up): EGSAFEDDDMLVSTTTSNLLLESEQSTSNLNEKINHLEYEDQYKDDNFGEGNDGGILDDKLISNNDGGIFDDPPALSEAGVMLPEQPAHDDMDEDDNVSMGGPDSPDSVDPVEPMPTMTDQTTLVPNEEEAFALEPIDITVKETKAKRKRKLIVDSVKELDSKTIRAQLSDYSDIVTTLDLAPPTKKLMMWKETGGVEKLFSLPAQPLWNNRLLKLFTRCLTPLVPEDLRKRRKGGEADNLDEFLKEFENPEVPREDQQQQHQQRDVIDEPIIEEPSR

[2] = biological target: T2, GST fusion with RAD21 cleavage site 2 peptide IEEPSR at the COOH terminus (also: fused to GST at N-terminal side); experiment: immunoblot, hybridoma ascites on E. coli extracts of GST-peptide fusions
T2 construct: E. coli extract of GST fused to the peptide near the RAD21 cleavage site; also called 肽段IEEPSR(切割位点2); not shown: GST (glutathione S-transferase) fusion partner, expressed in E. coli
T2 chain: {GST}-IEEPSR

[3] = biological target: T3, GST fusion with REC8 cleavage site 2 peptide PSEIEVPR at the COOH terminus (also: fused to GST at N-terminal side); experiment: as above
T3 construct: not shown: GST (glutathione S-transferase) fusion partner, expressed in E. coli
T3 chain: {GST}-PSEIEVPR

binding result [1]: binds | binding result [2]: binds
B1: 抗RAD21新表位单克隆抗体IB22-S (antibody, mouse IgG2a, kappa, V domains shown)
VH: EVQLVESGGGLVQPRGSLKLSCAASGFTFNNYAMNWVRQAPGKGLEWVARIRSKSKNYAIYYADSVKDRFTISRDDSQTMLYLQMNNLKTEDTGMYYCVAPSYSGSSPFAYWGQGTLVTVSA
VL: DVLMTQTPLSLPVSLGDQASISCRSSQSFVHSNGNTYLEWYLQKPGQSPKLLIYKVSNRFSGVPDRFSGSGSGTDFTLKISRVEAEDLGVYYCFQGSHVPFTFGSGTKLEIKR
notes: Mouse hybridoma antibody (ascites used in blots); also called 1B22s

binding result [3]: binds
B2: 抗REC8新表位单克隆抗体IE22-D (antibody, V domains shown)
VH: EVQLQQSGAEVVKPGASVKLSCTASGFNIKDTYMHWVNQRPEQGLEWIGRNDPANGNSKYDPKFQGKATITADTSSNTAYLQLSSLTSEDTAVYYCARGVRQGAWFAYWGQGTLVTVSA
VL: DVLMTQTPLSLPVSLGDQASISCRSSQSIVHSNGNTYLEWYLQKPGQSPKLLIYKVSNRFSGVPDRFSGSGSGTDFTLKISRVEAEDLGVYYCFQGSHVFTFGAGTKLELKR
notes: Mouse hybridoma antibody (ascites used in blots); also called 1E22d
